Assay in all cases: cell-based or functional assay
Assay [1] deals with HIV-1 Env of isolate MGRM-D-024 (clade D) (HIV-1).
In assay [2] the target is HIV-1 Env of isolate 92TH021 (HIV-1).
The target of assay [3] is HIV-1 Env of isolate MGRM-D-026 (clade D) (HIV-1).
Assay [4] deals with HIV-1 MGRM-C-022 Env (HIV-1).
Assay [5] concerns the target HIV-1 Env of isolate MGRM-G-024 (clade G pseudovirus) (HIV-1).
The target in assay [6] is HIV-1 Env of isolate MGRM-F1-016 (HIV-1).
Assay [7] deals with HIV-1 Env of isolate MGRM-F1-013 (HIV-1).
Assay [8] concerns the target HIV-1 Env of isolate MGRM-G-011 (subtype G) (HIV-1).
The target of assay [9] is HIV-1 Env of isolate MGRM-D-020 (clade D) (HIV-1).
Assay [10] addresses HIV-1 Env of isolate MGRM-D-012 (clade D) (HIV-1).
In assay [11] the target is HIV-1 Env of isolate MGRM-G-016 (subtype G) (HIV-1).
The target of assay [12] is HIV-1 Env of isolate MGRM-D-014 (HIV-1).
The target of assay [13] is HIV-1 Env of isolate MGRM-F1-012 (subtype F) (HIV-1).
Assay [14] addresses HIV-1 Env of isolate MG RM-AG-009 (HIV-1).
In assay [15] the target is HIV-1 Env of isolate MGRM-F1-023 (HIV-1).
Assay [16] has as its target HIV-1 MGRM-Chronic-B-001 Env (pseudovirus) (HIV-1).
Assay [17] deals with HIV-1 MGRM-Chronic-B-004 Env (pseudovirus) (HIV-1).
Assay [18] deals with HIV-1 Env of isolate MGRM-C-009 (pseudovirus) (HIV-1 isolate MGRM-C-009, subtype C).
Assay [19] concerns the target HIV-1 Env of isolate 92UG046 (subtype D) (HIV-1).
Assay [20] addresses HIV-1 SF162 Env (pseudovirus) (HIV-1) (UniProt P19550).
The target in assay [21] is HIV-1 Env of isolate MGRM-C-024 (pseudovirus) (HIV-1 isolate MGRM-C-024, subtype C).
The target of assay [22] is HIV-1 Env of isolate MGRM-C-022 (pseudovirus) (HIV-1 isolate MGRM-C-022, subtype C).
Assay [23] addresses HIV-1 Env of isolate MG RM-D-022 (subtype D) (HIV-1).
The target in assay [24] is HIV-1 JR-CSF Env Y177A (HIV-1 (isolate JR-CSF)) (UniProt P20871).
Assay [25] deals with HIV-1 JR-CSF Env D167A (HIV-1 (isolate JR-CSF)) (UniProt P20871).
In assay [26] the target is HIV-1 JR-CSF Env E466A (HIV-1 (isolate JR-CSF)) (UniProt P20871).
The target of assay [27] is HIV-1 Env of isolate MGRM-G-028 (HIV-1).
Assay [28] has as its target HIV-1 Env of isolate 92UG001 (HIV-1).
The target in assay [29] is HIV-1 Env of isolate MGRM-Chronic-B-003 (HIV-1).
The target of assay [30] is HIV-1 Env of isolate MGRM-Chronic-B-002 (HIV-1).

From patent publication US20200024330A1 come the findings set out here.

The IC50 is the point on the concentration scale where inhibition reaches its midpoint. Low readings indicate greater potency in that assay, high ones weaker potency in that assay.

Chain of PGT-144 (4970_K22) (antibody) (VH): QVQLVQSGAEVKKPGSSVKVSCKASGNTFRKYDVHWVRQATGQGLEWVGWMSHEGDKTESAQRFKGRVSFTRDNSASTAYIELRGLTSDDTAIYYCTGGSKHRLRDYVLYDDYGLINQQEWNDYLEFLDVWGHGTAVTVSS
Chain of PGT-144 (4970_K22) (antibody) (VL): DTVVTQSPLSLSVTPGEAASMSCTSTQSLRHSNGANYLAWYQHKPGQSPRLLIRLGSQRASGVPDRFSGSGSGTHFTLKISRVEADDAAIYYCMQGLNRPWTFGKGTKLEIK
Chain of PGT-142 (4995_E20) (antibody) (VH): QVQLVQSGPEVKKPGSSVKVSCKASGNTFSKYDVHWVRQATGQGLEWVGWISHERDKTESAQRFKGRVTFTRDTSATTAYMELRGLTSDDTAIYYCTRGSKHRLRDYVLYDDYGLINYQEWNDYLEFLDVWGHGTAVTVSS
Chain of PGT-142 (4995_E20) (antibody) (VL): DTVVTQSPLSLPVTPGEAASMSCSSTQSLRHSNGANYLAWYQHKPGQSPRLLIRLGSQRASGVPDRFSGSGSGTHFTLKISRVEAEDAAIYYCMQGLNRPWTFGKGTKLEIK
Chain of PGT-143 (4980_N08) (antibody) (VH): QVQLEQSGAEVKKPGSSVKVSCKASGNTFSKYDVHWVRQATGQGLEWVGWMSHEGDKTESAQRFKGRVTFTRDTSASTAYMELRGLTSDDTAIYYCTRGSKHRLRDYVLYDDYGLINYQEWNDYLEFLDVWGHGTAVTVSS
Chain of PGT-143 (4980_N08) (antibody) (VL): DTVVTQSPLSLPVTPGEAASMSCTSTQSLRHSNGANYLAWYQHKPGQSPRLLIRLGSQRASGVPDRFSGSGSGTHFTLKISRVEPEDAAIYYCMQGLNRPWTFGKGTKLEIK
Chain of PGT-141 (4964_G22; 4993_K13) (antibody) (VH): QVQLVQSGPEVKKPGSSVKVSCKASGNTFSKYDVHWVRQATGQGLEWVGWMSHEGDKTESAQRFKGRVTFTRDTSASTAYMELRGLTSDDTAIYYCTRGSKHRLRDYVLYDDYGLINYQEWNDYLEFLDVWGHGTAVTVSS

For the substance 1496_C09 (PG9) (TCN-109) (antibody), the IC50 (µg/ml), pseudovirus neutralization in assay [1] came out at 0.03 µg/mL; in assay [2] it was 0.09 µg/mL; in assay [3], 17.5 µg/mL; in assay [5], 0.07 µg/mL; in assay [9], 2.03 µg/mL; in [10] it was 9.31 µg/mL. Besides, the IC50 (µg/mL), pseudovirus neutralization in assay [2] was found to be 0.059 µg/mL; in [6], 0.518 µg/mL; in [7], 1.25 µg/mL; in [12], 0.023 µg/mL. The IC50 in assay [4] was found to be 0.19 µg/mL. Further, the neutralization IC50 amounted to 0.335 µg/mL in assay [8] and 1.36 µg/mL in assay [11].

As for 4838_L06 (PGT-121) (antibody), the IC50 (µg/mL), pseudovirus neutralization in assay [13] is 1.91 µg/mL; in assay [19], more than 50 µg/mL; in [23] it was more than 50 µg/mL. In assay [14], this substance gave a neutralization IC50 of 0.08 µg/mL. In addition, the IC50 stood at 0.097 µg/mL in assay [15], 0.931 µg/mL in assay [6] and 0.083 µg/mL in [7]. Besides, the IC50, pseudovirus neutralization in [16] turned out to be 0.102 µg/mL; in assay [17] it was 0.009 µg/mL; in [20] it was 0.005 µg/mL. For the same substance, the values for the IC50 (µg/mL) neutralization in assay [18], in assay [21] and in assay [22] were more than 50 µg/mL, 0.052 µg/mL and 0.015 µg/mL, respectively.

4858_P08 (PGT-123) (antibody): the IC50 (µg/mL), pseudovirus neutralization in [13] was 22.2 µg/mL; in [19], more than 50 µg/mL; in assay [23] it was more than 50 µg/mL. In addition, the neutralization IC50 in assay [14] amounted to 0.073 µg/mL. Besides, the half-maximal inhibitory concentration (IC50) in assay [15] worked out at 0.053 µg/mL; in [6], 4.95 µg/mL; in assay [7], 0.08 µg/mL. Moreover, the IC50, pseudovirus neutralization in assay [16] was determined as 0.15 µg/mL; in assay [17] it was 0.008 µg/mL; in assay [27], 0.008 µg/mL; in assay [20] it was 0.005 µg/mL. The Fold IC50 increase relative to wild-type in [24] turned out to be 2.4 fold; in assay [25], 1.2 fold; in assay [26], 0.6 fold. Further, the IC50 (µg/mL) neutralization in [18] was more than 50 µg/mL; in assay [21], 0.195 µg/mL; in assay [22], 0.01 µg/mL.

As to 4877_D15 (PGT-122) (antibody), the IC50 (µg/mL), pseudovirus neutralization in assay [13], in [19] and in assay [23] was more than 50 µg/mL in each case. This substance yielded a neutralization IC50 in [14] of 0.128 µg/mL. Also, the results for the concentration for half-maximal inhibition (IC50) in [15], in assay [6] and in assay [7] were 0.154 µg/mL, 4.81 µg/mL and 0.152 µg/mL, respectively. Moreover, the IC50, pseudovirus neutralization in assay [16] worked out at 0.138 µg/mL; in [17], 0.008 µg/mL; in [27], 0.01 µg/mL; in assay [20], 0.009 µg/mL. Also, the IC50 (µg/mL) neutralization is more than 50 µg/mL in [18], 0.102 µg/mL in [21] and 0.012 µg/mL in assay [22].

As to 5123_A06 (PGT-125) (antibody), the IC50 (µg/mL), pseudovirus neutralization in assay [13] is more than 50 µg/mL; in [19] it was more than 50 µg/mL; in [23] it was 0.04 µg/mL. In assay [14], this substance had a neutralization IC50 of 0.026 µg/mL. In addition, the 50% inhibitory concentration (IC50) in [15] was 0.12 µg/mL; in [6] it was more than 50 µg/mL; in [7], more than 50 µg/mL. The IC50, pseudovirus neutralization in assay [16] is more than 50 µg/mL; in assay [17], 0.007 µg/mL; in assay [27], 0.012 µg/mL; in assay [20], 0.004 µg/mL. Also, the Fold IC50 increase relative to wild-type in assay [24] is 1.1 fold; in [25], 1.7 fold; in assay [26], 1.6 fold. Further, the IC50 (µg/mL) neutralization was more than 50 µg/mL in [18], more than 50 µg/mL in [21] and 1.23 µg/mL in [22].

As for 5141_B17 (PGT-126) (antibody), the IC50 (µg/mL), pseudovirus neutralization is 0.3 µg/mL in [13], more than 50 µg/mL in [19] and more than 50 µg/mL in assay [23]. The same substance had a neutralization IC50 in [14] of 0.03 µg/mL. Moreover, the half-maximal inhibitory concentration (IC50) in assay [15] was 0.009 µg/mL; in [6], more than 50 µg/mL; in assay [7] it was more than 50 µg/mL. Moreover, the IC50, pseudovirus neutralization is more than 50 µg/mL in assay [16], 0.01 µg/mL in assay [17], 0.012 µg/mL in assay [27] and 0.003 µg/mL in [20]. The Fold IC50 increase relative to wild-type in [24] is 0.9 fold; in [25] it was 1.6 fold; in [26] it was 1.4 fold. For the same substance, the IC50 (µg/mL) neutralization is more than 50 µg/mL in [18], more than 50 µg/mL in assay [21] and 0.96 µg/mL in assay [22].

As for 5145_B14 (PGT-127) (antibody), the IC50 (µg/mL), pseudovirus neutralization in assay [13], in assay [19] and in assay [23] was more than 50 µg/mL each time. In assay [14], this substance registered a neutralization IC50 of 0.059 µg/mL. Also, the 50% inhibitory concentration (IC50) in assay [15] is 0.119 µg/mL; in assay [6], more than 50 µg/mL; in [7], more than 50 µg/mL. Also, the IC50, pseudovirus neutralization in assay [16] is more than 50 µg/mL; in [17], 0.018 µg/mL; in assay [27], 0.032 µg/mL; in assay [20] it was 0.019 µg/mL. For the same substance, the Fold IC50 increase relative to wild-type in assay [24] came out at 2.9 fold; in assay [25] it was 1.6 fold; in assay [26], 0.9 fold. For the same substance, the results for the IC50 (µg/mL) neutralization in assay [18], in [21] and in assay [22] were more than 50 µg/mL, more than 50 µg/mL and 0.41 µg/mL, respectively.

As to PGT-121 (antibody), the IC50 (µg/mL), pseudovirus neutralization in assay [2] is more than 50 µg/mL.

Regarding PGT-122 (antibody), the IC50 (µg/mL), pseudovirus neutralization in assay [2] was more than 50 µg/mL.

In the case of PGT-141 (4964_G22; 4993_K13) (antibody), the neutralization IC50 in assay [8] is 0.086 µg/mL; in assay [11] it was 4.69 µg/mL.

As to PGT-142 (4995_E20) (antibody), the figures for the neutralization IC50 in assay [8] and in assay [11] were 0.046 µg/mL and 8.17 µg/mL, respectively.

Consider PGT-143 (4980_N08) (antibody), for which the figures for the neutralization IC50 in [8] and in [11] were 0.074 µg/mL and 7.6 µg/mL, respectively.

With PGT-144 (4970_K22) (antibody), the neutralization IC50 was 1.58 µg/mL in assay [8] and more than 50 µg/mL in [11].

Turning to PGV04 (antibody), in [28], the IC50, pseudovirus neutralization is 0.553 µg/mL. Besides, the IC50 (µg/mL), pseudovirus neutralization in assay [2] was found to be 1.29 µg/mL; in assay [6], 0.268 µg/mL; in assay [7], 0.084 µg/mL; in [12], 0.194 µg/mL. Further, the neutralization IC50 was 0.78 µg/mL in assay [8] and 0.019 µg/mL in assay [11].

Take VRC01 (antibody): the IC50, pseudovirus neutralization in [15] is 0.392 µg/mL; in assay [6], 0.517 µg/mL; in assay [7], 0.17 µg/mL; in assay [12] it was 0.332 µg/mL. For the same substance, the concentration for half-maximal inhibition (IC50) in assay [29] amounted to 0.1 µg/mL; in [30], 0.117 µg/mL. For the same substance, the neutralization IC50 in assay [8] came to 0.065 µg/mL; in assay [11], 0.063 µg/mL.
